According to US20170166618A1 (Novartis, published 2017):

Target: FGF23 receptor
Assay: cell-based or functional assay

B1: sKlotho-FGF23-6×His fusion polypeptide (ligand)
chain: EPGDGAQTWARFSRPPAPEAAGLFQGTFPDGFLWAVGSAAYQTEGGWQQHGKGASIWDTFTHHPLAPPGDSRNASLPLGAPSPLQPATGDVASDSYNNVFRDTEALRELGVTHYRFSISWARVLPNGSAGVPNREGLRYYRRLLERLRELGVQPVVTLYHWDLPQRLQDAYGGWANRALADHFRDYAELCFRHFGGQVKYWITIDNPYVVAWHGYATGRLAPGIRGSPRLGYLVAHNLLLAHAKVWHLYNTSFRPTQGGQVSIALSSHWINPRRMTDHSIKECQKSLDFVLGWFAKPVFIDGDYPESMKNNLSSILPDFTESEKKFIKGTADFFALCFGPTLSFQLLDPHMKFRQLESPNLRQLLSWIDLEFNHPQIFIVENGWFVSGTTKRDDAKYMYYLKKFIMETLKAIKLDGVDVIGYTAWSLMDGFEWHRGYSIRRGLFYVDFLSQDKMLLPKSSALFYQKLIEKNGFPPLPENQPLEGTFPCDFAWGVVDNYIQVDTTLSQFTDLNVYLWDVHHSKRLIKVDGVVTKKRKSYCVDFAAIQPQIALLQEMHVTHFRFSLDWALILPLGNQSQVNHTILQYYRCMASELVRVNITPVVALWQPMAPNQGLPRLLARQGAWENPYTALAFAEYARLCFQELGHHVKLWITMNEPYTRNMTYSAGHNLLKAHALAWHVYNEKFRHAQNGKISIALQADWIEPACPFSQKDKEVAERVLEFDIGWLAEPIFGSGDYPWVMRDWLNQRNNFLLPYFTEDEKKLIQGTFDFLALSHYTTILVDSEKEDPIKYNDYLEVQEMTDITWLNSPSQVAVVPWGLRKVLNWLKFKYGDLPMYIISNGIDDGLHAEDDQLRVYYMQNYINEALKAHILDGINLCGYFAYSFNDRTAPRFGLYRYAADQFEPKASMKHYRKIIDSNGFPGPETLERFCPEEFTVCTECSFFHTRKSLGSGGGGSGGGGSGGGGSLKYPNASPLLGSSWGGLIHLYTATARNSYHLQIHKNGHVDGAPHQTIYSALMIRSEDAGFVVITGVMSRRYLCMDFRGNIFGSHYFDPENCRFQHQTLENGYDVYHSPQYHFLVSLGRAKRAFLPGMNPPPYSQFLSRRNEIPLIHFNTPIPRRHTQSAEDDSERDPLNVLKPRARMTPAPASCSQELPSAEDNSPMASDPLGVVRGGRVNTHAGGTGPEGCRPFAKFIHHHHHH
- Egr-1-luciferase reporter activity, fold change at about 0.6 nM, with heparin (20 µg/ml): 2 fold change
- Egr-1-luciferase reporter activity, fold change at about 1.21 nM, no heparin: 1.2 fold change
- Egr-1-luciferase reporter activity, fold change at about 19.3 nM, no heparin: 2.4 fold change
